Results: US20120277143A1 (Janssen / Centocor, published 2012)
Numbering of substitutions follows the chain as printed.

B1: C06_19C3 (designed binder)
chain: DLGKKLLEAARAGQDDEVRILMANGADVNATDDWGDTLLHLAATDGHLEIVEVLLKNGADVNAIDAMGMTPLHLAAVYGYLEIVEVLLKNGADVNAMDFSGFTPLHLAAFSGHLEIVEVLLKYGADVNAQDKFGKTAFDISIDNGNEDLAEILQKLN
notes: ankyrin repeat protein; His-tagged, IMAC-purified
B2: C06_17A11 (designed binder)
chain: B1 chain with T31I, D33E, L38P, T44I, D45E, N57Y, I64S
notes: as for B1
B3: C06_19F8 (designed binder)
chain: DLGKKLLEAARAGQDDEVRILMANGADVNATDDWGDTLLHLAATDGHLEIVEVLLKNGADVNASDSQGLTPLHLAAYYGHLEIVEVLLKYGADVNANDHHGITPLHLAAFAGHLEIVEVLLKYGADVNAQDKFGKTAFDISIDNGNEDLAEILQKLN
notes: as for B1
B4: C06_50E5 (designed binder)
chain: B1 chain with V28A
notes: as for B1
B5: C06_54C2 (designed binder)
chain: B1 chain with A108T
notes: as for B1
B6: C06_20B8 (designed binder)
chain: DLGKKLLEAASAGQDDEVHILMANGADVNAVDHDGFTPLHLAAADGHLEIVEVLLKHGADVNADDNFGWTPLHLAAFFGHLEIVEVLLKHGADVNAKDQTGLTPLHLAAVDGHLEIVEVLLKHGADVNAQDKFGKTAFDISIDNGNEDLAEILQKLN
notes: as for B1
B7: C06_28D4 (designed binder)
chain: B6 chain with K5E, H123N
notes: as for B1
B8: C06_42C7 (designed binder)
chain: B6 chain with H19R
notes: as for B1
B9: C06_13A10 (designed binder)
chain: DLGKKLLEAARAGQDDEVRILMANGADVNVSDRIGNTPLHLAAVYVHLEIVEVLLKNGADVNALDDDGLTPLHLAAADGHLEIVEVLLKHGADVNATDSHVWTPLHLAAFFGHLEIVEVLLKYGADVNAQDKFGKTAFDISIDNGNEDLAEILQKLN
notes: as for B1
B10: C06_26H2 (designed binder)
chain: DLGKKLLEAARAGQDDEVRILMANGADVNAYDSSGDTPLHVAAIDGHLEIVEVLLKHGADVNASDASGDTPLHLAADFGHLKIVEVLLKHGADVNAEDMIGITPLHLAAYNGHLEIVEVLLKNGADVNASDVHGFTPLHLAAFIGHLGIVEVLLKYDADVNAQDKFGKTAFDISIDNRNEDLAEILQKLN
notes: as for B1
B11: C06_14A4 (designed binder)
chain: DLGKKLLEAARAGQDDEVRILMANGADVNATDAWGLTPLHLAALLGHLEIVEVLLKHGADVNAHDETGFTPLHLAAVEGHLEIVEVLLKYGADVNASDILGRTPLHLAANFGHLEIVEVLLKYGADVNAQDKFGKTAFDISIDNGNEDLAEILQKLN
notes: as for B1
B12: C06_4A7 (designed binder)
chain: B11 chain with T31E, A33D, L44M, H57Y, H64K, E66D
notes: as for B1
B13: C06_42A11 (designed binder)
chain: B11 chain with R11S, A12V, R19H, Y123H
notes: as for B1
B14: C06_43G2 (designed binder)
chain: DLGKKLLEAARAGQDDEVRILMANGADVNAKDVTGETPLHLASWEGHLEIVEVLLKHGADVNAQDLFGITPLHLAAATDGHLEIVEVLLKNGADVNATDSNGFTPLHLAASYGHLEIVDVLLKNGADVNAHDFDGFTPLHLAASWGHLEIVEVLLKYGADVNAQDKFGKTAFDISIDNGNEDLAEILQKLN
notes: as for B1
B15: C06_44C12 (designed binder)
chain: DLGKKLLEAASAGQDDEVHILMANGADVNALDDSGYTPLHLAAEDGHLEIVEVLLKHGADVNAADRMGDTPLHLAAFVGHLEIVEVLLKYGADVNAVDLAGVTPLHVAAFYGHLEIVEVLLKYGADVNAQDKFGKTAFDISIDNGNEDLAEILQKLN
notes: as for B1
B16: C06_24H1 (designed binder)
chain: B15 chain with S11R, H19R, L31H, D33N, Y36F, D45I, H57Y, Y123N
notes: as for B1
B17: C06_44F6 (designed binder)
chain: B15 chain with K5E, S11R, A64M, R66N, M67I, D69N, P71S, V78D, Y123H
notes: as for B1
B18: C06_48F3 (designed binder)
chain: B15 chain with S11R, H19R, L31F, Y36L, E44D
notes: as for B1
B19: C06_53E9 (designed binder)
chain: DLGKELLEAASAGQDDEVHILMANGADVNASDKDGSTPLHLAAVYGHLEIVEVLLKYGADVNAEDMNGYTPLHLAAADGHLEIVEVLLKYGADVDAKDRTGWTPLHLAGEFGHLEIVEVLLKYGADVNAQDKFGKTAFDISIDNGNEDLAEILQKLN
notes: as for B1

What was measured:
human IL4 [1] = biological target: T1, human IL4 (human, UniProt P05112 25-153, biotinylated in the SPR and competition assays (sites not given)); experiment: cell-based or functional assay
T1 sequence: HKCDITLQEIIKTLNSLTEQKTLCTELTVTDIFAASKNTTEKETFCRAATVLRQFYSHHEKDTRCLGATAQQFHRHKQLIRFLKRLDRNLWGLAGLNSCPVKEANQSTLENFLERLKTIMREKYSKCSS

human IL4 [2] = biological target: T1, human IL4; experiment: SPR ProteOn, biotin-IL4 on neutravidin chip, 1:1 fit
Procedure: Purified binders selected as “hits” were ranked by their affinity on a ProteOn XPR-36 instrument (Bio-Rad). ProteOn is an optical biosensor instrument that measures protein-protein interactions in real time, based on Surface Plasmon Resonance technology similar to Biacore (GE). A rapid experimental protocol was performed as follows: On a GLC sensor chip (Bio-Rad), Neutravidin (Thermo Scientific) was covalently immobilized to a density of >5000 RU using amine coupling chemistry as described by the manufacturer. On one flow cell, biotinylated IL4 (Peprotech) was immobilized to a level of 250 RU, while another flow cell was used as reference, with neutravidin immobilized only. […] The retrieved values were used to rank the AR proteins by their affinity.

human IL4 [3] = biological target: T1, human IL4; experiment: Luminex competition, 67 pM biotin-IL4 binding to IL4RA-Fc beads
Procedure: For biotinylation of IL4, recombinant human IL4 (Peprotech) was biotinylated at a 4:1 ratio using EZ-Link NHS-LC-Biotin (Pierce, #21336) for 2 hours at RT. The protein was dialyzed in PBS overnight to remove excess biotinylation reagent. Competition binding for cynomologous IL4 (SEQ ID NO: 5) was performed using the isolated protein biotinylated in the same manner.
AR protein inhibition of IL4 binding to IL4 RA was assessed using IL4 RA-Fc (R&D Systems), comprising the Gly24-His232 which represents the ECD (SEQ ID NO: 5) fused to a human IgGl-Fc and therefor a disulfide linked homodimer. The protein was conjugated to carboxylated Luminex microspheres according to the manufacturer's protocol. For neutralization experiments, 5000 IL4RA-Fc conjugated beads in 50 μl were added to each well of a 96-well filter plate (Millipore). Biotinylated human IL4 was mixed with an appropriate dilution of AR protein in Luminex Assay Buffer (PBS, 1% BSA, pH 7.4) to give a final concentration of 67 pM IL4. The plate was incubated for 1 hour at RT in the dark on a plate shaker, set to shake vigorously to avoid bead aggregation. The plate was washed twice with 150 μl of wash buffer (PBS, 0.1% BSA, pH 7.4, 0.05% Tween-20) using a vacuum manifold followed by the addition of 50 μl of Streptavidin PE at 25 μg/ml and incubated at RT for 20 minutes. The plates were washed again and 150 μl of sheath fluid was added and the plate was placed on the shaker for 5 minute. Plates were read using a Luminex® 100 system; data were plotted as a function of AR protein concentration. IC₅₀ values were determined by fitting the data to the equation for sigmoidal dose response using PRISM software (GraphPAD PRISM) (Table 6).

Binder	HEK Stat6 Inhibition IC50 (human IL4 [1])	Kd (human IL4 [2])	koff (human IL4 [2])	kon (human IL4 [2])	IC50 (human IL4 [3])	A549 TARC Inhibition IC50 (human IL4 [1])	Type 1 Complex inhibition IC50 (human IL4 [1])
B1	0.0015 nM	0.101 nM	9.73e-05 s⁻¹	962000 M⁻¹ s⁻¹	0.0063 nM	–	–
B2	0.003 nM	0.136 nM	0.00014 s⁻¹	1.03e+06 M⁻¹ s⁻¹	0.0744 nM	–	–
B3	0.0152 nM	1.41 nM	5.18e-05 s⁻¹	36600 M⁻¹ s⁻¹	0.0176 nM	–	–
B4	0.0035 nM	0.174 nM	0.000126 s⁻¹	725000 M⁻¹ s⁻¹	0.0148 nM	–	–
B5	0.0032 nM	0.4 nM	0.000161 s⁻¹	403000 M⁻¹ s⁻¹	0.0168 nM	–	–
B6	0.004 nM	0.0809 nM	0.000163 s⁻¹	2.02e+06 M⁻¹ s⁻¹	0.0205 nM	0.288 nM	0.0038 nM
B7	0.0032 nM	0.0856 nM	0.000138 s⁻¹	1.62e+06 M⁻¹ s⁻¹	0.0353 nM	–	–
B8	0.0068 nM	0.0978 nM	0.000179 s⁻¹	1.83e+06 M⁻¹ s⁻¹	0.0459 nM	–	–
B9	0.0054 nM	0.0592 nM	0.000149 s⁻¹	2.52e+06 M⁻¹ s⁻¹	0.0306 nM	0.621 nM	0.0066 nM
B10	0.0033 nM	0.0712 nM	0.000247 s⁻¹	3.47e+06 M⁻¹ s⁻¹	0.0314 nM	–	–
B11	–	0.0858 nM	2.73e-05 s⁻¹	318000 M⁻¹ s⁻¹	–	–	–
B12	0.444 nM	–	–	–	0.0443 nM	–	–
B13	0.0193 nM	0.0075 nM	5.43e-06 s⁻¹	727000 M⁻¹ s⁻¹	0.0656 nM	0.325 nM	0.0032 nM
B14	0.0016 nM	0.0427 nM	5.98e-05 s⁻¹	1.4e+06 M⁻¹ s⁻¹	0.0235 nM	0.262 nM	0.0008 nM
B15	0.0011 nM	0.0436 nM	3.77e-05 s⁻¹	864000 M⁻¹ s⁻¹	0.0203 nM	0.231 nM	0.0017 nM
B16	0.241 nM	–	–	–	0.0717 nM	–	–
B17	0.0064 nM	0.0967 nM	0.0002 s⁻¹	2.07e+06 M⁻¹ s⁻¹	0.0158 nM	0.142 nM	0.0249 nM
B18	0.0047 nM	0.174 nM	0.000151 s⁻¹	872000 M⁻¹ s⁻¹	0.0197 nM	–	–
B19	0.0143 nM	0.326 nM	0.000281 s⁻¹	862000 M⁻¹ s⁻¹	0.0178 nM	–	–
